According to publication PMC8497999 (iScience, 2021):
Read-outs that look alike come from different tables or passages of the source.

Columns and labels:
Experiment in all cases: SEC
[1] = target: T1, ACAD9 (non-tagged wild type) (human, UniProt Q9H845 38-621)
T1 sequence: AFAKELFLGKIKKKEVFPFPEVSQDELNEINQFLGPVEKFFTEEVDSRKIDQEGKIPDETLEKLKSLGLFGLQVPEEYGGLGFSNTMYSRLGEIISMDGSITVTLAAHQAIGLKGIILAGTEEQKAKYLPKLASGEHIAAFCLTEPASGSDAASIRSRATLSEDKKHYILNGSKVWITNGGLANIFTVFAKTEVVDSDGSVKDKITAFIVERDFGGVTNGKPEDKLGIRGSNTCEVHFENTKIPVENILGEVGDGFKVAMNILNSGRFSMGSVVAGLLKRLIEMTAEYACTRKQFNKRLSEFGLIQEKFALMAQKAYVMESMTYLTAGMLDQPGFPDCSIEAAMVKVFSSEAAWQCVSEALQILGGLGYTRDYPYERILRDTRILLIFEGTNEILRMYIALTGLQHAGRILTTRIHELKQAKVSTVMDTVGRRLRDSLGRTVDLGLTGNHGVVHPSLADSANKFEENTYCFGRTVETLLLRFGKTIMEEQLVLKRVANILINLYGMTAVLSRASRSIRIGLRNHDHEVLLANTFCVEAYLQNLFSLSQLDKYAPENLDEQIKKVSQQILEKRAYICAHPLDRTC

[2] = target: T1, ACAD9 (non-tagged wild type); remark: listed apart in the source
SEC = target: the molecule itself

B1: His6-ECSIT (mature human mitochondrial ECSIT with N-terminal His tag) (natural protein)
chain: SSEQSLVPSPPEPRQRPTKALVPFEDLFGQAPGGERDKASFLQTVQKFAEHSVRKRGHIDFIYLALRKMREYGVERDLAVYNQLLNIFPKEVFRPRNIIQRIFVHYPRQQECGIAVLEQMENHGVMPNKETEFLLIQIFGRKSYPMLKLVRLKLWFPRFMNVNPFPVPRDLPQDPVELAMFGLRHMEPDLSARVTIYQVPLPKDSTGAADPPQPHIVGIQSPDQQAALARHNPARPVFVEGPFSLWLRNKCVYYHILRADLLPPEEREVEETPEEWNLYYPMQLDLEYVRSGWDNYEFDINEVEEGPVFAMCMAGAHDQATMAKWIQGLQETNPTLAQIPVVFRLAGSTRELQTSSAGLEEPPLPEDHQEEDDNLQRQQQGQS
- stoichiometry N [1]: 1 ECSIT monomer per ACAD9 monomer (2:2)
- stoichiometry N [2]: 1 monomer:monomer
- stoichiometry N (SEC): 2
